Measured values: US20110263454A1, “Methods of Identifying Functional Characteristics of Promoters, Transcription Modifying Proteins and Transcription Modulating Agents” (Salk Institute for Biological Studies, priority 2008, published 2011)

B1: PR: Progesterone Receptor (NR3C3), cDNA driver (protein, UniProt P06401 1-933, looked up)
Progesterone receptor: MTELKAKGPRAPHVAGGPPSPEVGSPLLCRPAAGPFPGSQTSDTLPEVSAIPISLDGLLFPRPCQGQDPSDEKTQDQQSLSDVEGAYSRAEATRGAGGSSSSPPEKDSGLLDSVLDTLLAPSGPGQSQPSPPACEVTSSWCLFGPELPEDPPAAPATQRVLSPLMSRSGCKVGDSSGTAAAHKVLPRGLSPARQLLLPASESPHWSGAPVKPSPQAAAVEVEEEDGSESEESAGPLLKGKPRALGGAAAGGGAAAVPPGAAAGGVALVPKEDSRFSAPRVALVEQDAPMAPGRSPLATTVMDFIHVPILPLNHALLAARTRQLLEDESYDGGAGAASAFAPPRSSPCASSTPVAVGDFPDCAYPPDAEPKDDAYPLYSDFQPPALKIKEEEEGAEASARSPRSYLVAGANPAAFPDFPLGPPPPLPPRATPSRPGEAAVTAAPASASVSSASSSGSTLECILYKAEGAPPQQGPFAPPPCKAPGASGCLLPRDGLPSTSASAAAAGAAPALYPALGLNGLPQLGYQAAVLKEGLPQVYPPYLNYLRPDSEASQSPQYSFESLPQKICLICGDEASGCHYGVLTCGSCKVFFKRAMEGQHNYLCAGRNDCIVDKIRRKNCPACRLRKCCQAGMVLGGRKFKKFNKVRVVRALDAVALPQPVGVPNESQALSQRFTFSPGQDIQLIPPLINLLMSIEPDVIYAGHDNTKPDTSSSLLTSLNQLGERQLLSVVKWSKSLPGFRNLHIDDQITLIQYSWMSLMVFGLGWRSYKHVSGQMLYFAPDLILNEQRMKESSFYSLCLTMWQIPQEFVKLQVSQEEFLCMKVLLLLNTIPLEGLRSQTQFEEMRSSYIRELIKAIGLRQKGVVSSSQRFYQLTKLLDNLHDLVKQLHLYCLNTFIQSRALSVEFPEMMSEVIAAQLPKILAGMVKPLLFHKK
B2: NR4a2: NR4a2 (NR4A2; NURR1), nuclear hormone receptor cDNA driver (protein, UniProt P43354 1-598, looked up)
Nuclear receptor subfamily 4 …: MPCVQAQYGSSPQGASPASQSYSYHSSGEYSSDFLTPEFVKFSMDLTNTEITATTSLPSFSTFMDNYSTGYDVKPPCLYQMPLSGQQSSIKVEDIQMHNYQQHSHLPPQSEEMMPHSGSVYYKPSSPPTPTTPGFQVQHSPMWDDPGSLHNFHQNYVATTHMIEQRKTPVSRLSLFSFKQSPPGTPVSSCQMRFDGPLHVPMNPEPAGSHHVVDGQTFAVPNPIRKPASMGFPGLQIGHASQLLDTQVPSPPSRGSPSNEGLCAVCGDNAACQHYGVRTCEGCKGFFKRTVQKNAKYVCLANKNCPVDKRRRNRCQYCRFQKCLAVGMVKEVVRTDSLKGRRGRLPSKPKSPQEPSPPSPPVSLISALVRAHVDSNPAMTSLDYSRFQANPDYQMSGDDTQHIQQFYDLLTGSMEIIRGWAEKIPGFADLPKADQDLLFESAFLELFVLRLAYRSNPVEGKLIFCNGVVLHRLQCVRGFGEWIDSIVEFSSNLQNMNIDISAFSCIAALAMVTERHGLKEPKRVEELQNKIVNCLKDHVTFNNGGLNRPNYLSKLLGKLPELRTLCTQGLQRIFYLKLEDLVPPPAIIDKLFLDTLPF
B3: NR4a3: NR4a3 (NR4A3; NOR1), nuclear hormone receptor cDNA driver (protein, UniProt Q92570 1-626, looked up)
Nuclear receptor subfamily 4 …: MPCVQAQYSPSPPGSSYAAQTYSSEYTTEIMNPDYTKLTMDLGSTEITATATTSLPSISTFVEGYSSNYELKPSCVYQMQRPLIKVEEGRAPSYHHHHHHHHHHHHHHQQQHQQPSIPPASSPEDEVLPSTSMYFKQSPPSTPTTPAFPPQAGALWDEALPSAPGCIAPGPLLDPPMKAVPTVAGARFPLFHFKPSPPHPPAPSPAGGHHLGYDPTAAAALSLPLGAAAAAGSQAAALESHPYGLPLAKRAAPLAFPPLGLTPSPTASSLLGESPSLPSPPSRSSSSGEGTCAVCGDNAACQHYGVRTCEGCKGFFKRTVQKNAKYVCLANKNCPVDKRRRNRCQYCRFQKCLSVGMVKEVVRTDSLKGRRGRLPSKPKSPLQQEPSQPSPPSPPICMMNALVRALTDSTPRDLDYSRYCPTDQAAAGTDAEHVQQFYNLLTASIDVSRSWAEKIPGFTDLPKEDQTLLIESAFLELFVLRLSIRSNTAEDKFVFCNGLVLHRLQCLRGFGEWLDSIKDFSLNLQSLNLDIQALACLSALSMITERHGLKEPKRVEELCNKITSSLKDHQSKGQALEPTESKVLGALVELRKICTLGLQRIFYLKLEDLVSPPSIIDKLFLDTLPF
B4: GCNF: Germ Cell Nuclear Factor (NR6A1, GCNF1), cDNA driver (protein, UniProt Q15406 1-480, looked up)
Nuclear receptor subfamily 6 …: MERDEPPPSGGGGGGGSAGFLEPPAALPPPPRNGFCQDELAELDPGTISVSDDRAEQRTCLICGDRATGLHYGIISCEGCKGFFKRSICNKRVYRCSRDKNCVMSRKQRNRCQYCRLLKCLQMGMNRKAIREDGMPGGRNKSIGPVQISEEEIERIMSGQEFEEEANHWSNHGDSDHSSPGNRASESNQPSPGSTLSSSRSVELNGFMAFREQYMGMSVPPHYQYIPHLFSYSGHSPLLPQQARSLDPQSYSLIHQLLSAEDLEPLGTPMLIEDGYAVTQAELFALLCRLADELLFRQIAWIKKLPFFCELSIKDYTCLLSSTWQELILLSSLTVYSKQIFGELADVTAKYSPSDEELHRFSDEGMEVIERLIYLYHKFHQLKVSNEEYACMKAINFLNQDIRGLTSASQLEQLNKRYWYICQDFTEYKYTHQPNRFPDLMMCLPEIRYIAGKMVNVPLEQLPLLFKVVLHSCKTSVGKE
B5: DAX-1: DAX1 (NR0B1), cDNA driver (protein, UniProt P51843 1-470, looked up)
Nuclear receptor subfamily 0 …: MAGENHQWQGSILYNMLMSAKQTRAAPEAPETRLVDQCWGCSCGDEPGVGREGLLGGRNVALLYRCCFCGKDHPRQGSILYSMLTSAKQTYAAPKAPEATLGPCWGCSCGSDPGVGRAGLPGGRPVALLYRCCFCGEDHPRQGSILYSLLTSSKQTHVAPAAPEARPGGAWWDRSYFAQRPGGKEALPGGRATALLYRCCFCGEDHPQQGSTLYCVPTSTNQAQAAPEERPRAPWWDTSSGALRPVALKSPQVVCEAASAGLLKTLRFVKYLPCFQVLPLDQQLVLVRNCWASLLMLELAQDRLQFETVEVSEPSMLQKILTTRRRETGGNEPLPVPTLQHHLAPPAEARKVPSASQVQAIKCFLSKCWSLNISTKEYAYLKGTVLFNPDVPGLQCVKYIQGLQWGTQQILSEHTRMTHQGPHDRFIELNSTLFLLRFINANVIAELFFRPIIGTVSMDDMMLEMLCTKI

What follows are molecules tested on hPPARg2 promoter (assay: NHR-promoter luciferase screen, hPPARg2 promoter). Settings: PPARG2 promoter; hormone receptor with or without its ligand.
Type: cell-based, human
Method in brief: (§1)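 CV-1 cells were co-transfected with 50 ng NHR (homodimer or NHR/RXR heterodimer), 100 ng promoter-luciferase construct and 50 ng LacZ. Luciferase was normalized to LacZ and to a no-NHR/no-ligand control.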

Row | Molecule | Luc. act., normalized to lacZ
1 | B1 | 1.8
2 | B2 | 1.4
3 | B3 | 1.1
4 | B4 | 1.4
5 | B5 | 1.9

Same assay, conditions: PPARG2 promoter; hormone receptor with or without its ligand; relative to control

Row | Molecule | Normalized Luc. act., normalized to control
6 | B1 | 0.9
7 | B2 | 0.7
8 | B3 | 0.6
9 | B4 | 0.7
10 | B5 | 0.9

Same assay, conditions: Table 6d; luciferase activity relative to control (control = 1.00)

Row | Molecule | Results of assays of transcription factor (+/- ligand) with hPPARg2
11 | B1 | 0.88
12 | B2 | 0.68
13 | B3 | 0.57
14 | B4 | 0.69
15 | B5 | 0.94

The molecules below were run on SREBP1c promoter (assay: NHR-promoter luciferase screen, SREBP1c promoter). Settings: SREBP1c promoter; HR component without or with ligand.
Type: cell-based, mouse
Method in brief: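 CV-1 cells co-transfected with 50 ng NHR (homodimer or NHR/RXR heterodimer), 100 ng promoter-luciferase and 50 ng LacZ. Luciferase read at 48 h, normalised to LacZ and to a no-NHR/no-ligand control.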

Row | Molecule | Luc. act., normalized to lacZ | Normalized Luc. act., normalized to control
16 | B1 | 466.4 | 1.4
17 | B2 | 456.2 | 1.4
18 | B3 | 358.6 | 1.1
19 | B4 | 368.2 | 1.1
20 | B5 | 497.8 | 1.5

Same assay, conditions: transcription factor +/- ligand; control = 1.00

Row | Molecule | mSREBP1-c promoter reporter activity
21 | B1 | 1.45
22 | B2 | 1.42
23 | B3 | 1.11
24 | B4 | 1.14
25 | B5 | 1.55

What follows are molecules tested on hPOMC promoter (assay: NHR-promoter luciferase screen, hPOMC promoter). Settings: hPOMC promoter; HR/ligand component.
Type: cell-based, human
Method in brief: as §1

Row | Molecule | Luc. act., normalized to lacZ | Normalized Luc. act., normalized to control
26 | B1 | 3.2 | 0.7
27 | B2 | 2.1 | 0.5
28 | B3 | 2.7 | 0.6
29 | B4 |  | 0.0
30 | B5 | 2.7 | 0.6

Same assay, conditions: transcription factor +/- ligand; control = 1.00

Row | Molecule | hPOMC promoter reporter activity
31 | B1 | 0.75
32 | B2 | 0.49
33 | B3 | 0.63
34 | B4 | 0.00
35 | B5 | 0.63

What follows are molecules tested on hMDR1 promoter (assay: NHR-promoter luciferase screen, hMDR1 promoter). Settings: MDR1 promoter; HR/ligand component.
Type: cell-based, human
Method in brief: as §1

Row | Molecule | Luc. act., normalized to lacZ | Normalized Luc. act., normalized to control
36 | B1 | 0.4 | 1.3
37 | B2 | 0.2 | 0.7
38 | B3 | 0.2 | 0.7
39 | B4 | 0.3 | 0.8
40 | B5 | 0.3 | 0.9

Same assay, conditions: transcription factor +/- ligand; control = 1.00

Row | Molecule | hMDR1 promoter reporter activity
41 | B1 | 1.35
42 | B2 | 0.74
43 | B3 | 0.65
44 | B4 | 0.83
45 | B5 | 0.89

These molecules were tested on hTNFa promoter (assay: NHR-promoter luciferase screen, hTNFa promoter). Settings: TNFa promoter; HR component without or with ligand.
Type: cell-based, human
Method in brief: as §1

Row | Molecule | Luc. act., normalized to lacZ | Normalized Luc. act., normalized to control
46 | B1 | 1214.8 | 1.2
47 | B2 | 735.5 | 0.7
48 | B3 | 691.0 | 0.7
49 | B4 | 1203.7 | 1.2
50 | B5 | 854.8 | 0.9

Same assay, conditions: transcription factor +/- ligand; control = 1.00

Row | Molecule | hTNFa promoter reporter activity
51 | B1 | 1.24
52 | B2 | 0.75
53 | B3 | 0.70
54 | B4 | 1.22
55 | B5 | 0.87

These molecules were tested on mPgc1b promoter (assay: NHR-promoter luciferase screen, mPgc1b promoter). Settings: PGC1b promoter reporter; co-transfected HR, without or with its ligand.
Type: cell-based, mouse
Method in brief: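 CV-1 cells co-transfected with NHR homodimer or NHR/RXR heterodimer (pcDNA3.1, C-terminal V5H6 tag), promoter-luciferase construct and LacZ transfection control. Orphan receptors screened without ligand. Luciferase normalized to LacZ and to no-NHR/no-ligand control.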

Row | Molecule | Luc. act., normalized to lacZ
56 | B1 | 8.9
57 | B2 | 9.0
58 | B3 | 9.2
59 | B4 | 11.7
60 | B5 | 7.4

Same assay, conditions: PGC1b promoter reporter; co-transfected HR, without or with its ligand; relative to control

Row | Molecule | Normalized Luc. act., normalized to control
61 | B1 | 0.7
62 | B2 | 0.8
63 | B3 | 0.8
64 | B4 | 1.0
65 | B5 | 0.6

Same assay, conditions: mPgc1b promoter-luciferase, CV-1 cells, NHR +/- ligand, control = 1.00

Row | Molecule | luciferase activity normalized to lacZ activity and to a control, mPgc1b
66 | B1 | 0.75
67 | B2 | 0.76
68 | B3 | 0.77
69 | B4 | 0.99
70 | B5 | 0.62
